Experimental data taken from patent US8021646B2, “Compositions and methods for magnetic resonance imaging contrast agents” (Northwestern University, priority 2006, dated 2011).
No end group written: not given here.

Test: Solubility of protein polymers
Format: physicochemical
Description: In order to both increase solubility of the protein backbone in organic solvents and to include a better enzymatic transglutaminase substrate for conjugation to chelators, a phenylalanine amino acid (F) will be added to the random coil backbone, resulting in GFKAGTGSA (SEQ ID NO: 4). It is contemplated that this protein structure will not form a particular secondary structure, behaving as a random coil in an aqueous solution. As indicated by the monomer sequence, the lysines are spaced every nine amino acids, which is still an optimal interval for a high concentration of Gd chelators, but still allowing enough room to prevent steric hindrance. […] It is contemplated that proteins including various amounts of leucines, a hydrophobic residue that is high on the hydropathy scale, provides novel protein polymers useful in the present invention that are both water and organo-soluble.
However, a protein soluble in organic solvents would allow coupling in N-methyl-pyrrolidone (NMP) using a peptide coupling agent such as Bromo-tris-pyrrolidinophosphoniumhexafluorophosphate (PyBroP) or 2-(IH-7-Azabenzotriazol-1-yl)-1,1,3,3-tetramethyluroniumhexafluorophosphate Methanaminium (HATU) in diisopropylethylamine (DIEA). Two equivalents of the chelator and at least 2:1 equivalents of the peptide-coupling agent will be used for each lysine site. […]

Substance: GFKAGTGSA: protein polymer with monomer GFKAGTGSA (SEQ ID NO: 4), phenylalanine added to the random coil backbone (also: repeated monomer polymer)
- solubility in water: only soluble in water at high pH
- solubility in organics (organic solvents): not soluble in organics
